Assay results from IntAct's records for PubMed 10921873.

B1: Coatomer subunit alpha (Saccharomyces cerevisiae), P53622 (parent)
chain: MKMLTKFESKSTRAKGIAFHPSRPWVLVALFSSTIQLWDYRMGTLLHRFEDHEGPVRGLDFHPTQPIFVSAGDDYTIKVWSLDTNKCLYTLTGHLDYVRTVFFHRELPWIISASDDQTIRIWNWQNRKEIACLTGHNHFVMCAQFHPTDDLIVSASLDETIRIWDISGLRKRHSAPGTSSFEEQMSAQQNLLDGSLGDCVVKFILEGHTRGVNWASFHPTLPLIVSGSDDRQVKLWRMSATKAWEVDTCRGHTNNVDSVIFHPHQNLIISVGEDKTLRVWDLDKRTPVKQFKRENDRFWLIAAHPHINLFGAAHDSGIMVFKLDRERPCSFIHQNQLFFVNAEKQIQSFNFQKRVASLPYASLKGIGQPWDAFRSISYNPSQHSVLVNEANGKFALVILPKQPVGAVEPTSVTQDTGNFATFVGRNRFVVYNKNTESVEVRSLENKVTRNIKVEETVRTIVAAGPGSVLVIHPREVILYDVQQGKKVSQLAVKNVKYVSWSLDGQYVALMSKHTITLATKKLELINSMHETIRIKSAAWDETGVLIYSTLNHIRYSLLNGDRGIIKTLEKTLYITKVQGKLVYCLNREGEIEILTIDPTEYRFKKALVNKNFPEVLRLIKDSNLVGQNIISYLQKSGYPEIALQFVQDPHIRFDLALEYGNLDVALDEAKKLNDSSTWERLIQEALAQGNASLAEMIYQTQHSFDKLSFLYLVTGDVNKLSKMQNIAQTREDFGSMLLNTFYNNSTKERSSIFAEGGSLPLAYAVAKANGDEAAASAFLEQAEVDEQDVTLPDQMDASNFVQRPVISKPLEKWPLKEAELSYFEKAVLGQIDDLTIDDETPAVNTTQEQEEPLGEENFNDEDIGEDEGAWDLGDEDLDVGEELPEEVEQGEITSPAQEVETAIWIKNSKLPAVLVAAGAFDAAVQALSKQVGVVKLEPLKKYFTNIYEGCRTYIPSTPCELPAQLGYVRAYDDTVSEDQILPYVPGLDVVNEKMNEGYKNFKLNKPDIAIECFREAIYRITLLMVDDAEDEKLAHKILETAREYILGLSIELERRSLKEGNTVRMLELAAYFTKAKLSPIHRTNALQVAMSQHFKHKNFLQASYFAGEFLKIISSGPRAEQARKIKNKADSMASDAIPIDFDPYAKFDICAATYKPIYEDTPSVSDPLTGSKYVITEKDKIDRIAMISKIGAPASGLRIRV
partner: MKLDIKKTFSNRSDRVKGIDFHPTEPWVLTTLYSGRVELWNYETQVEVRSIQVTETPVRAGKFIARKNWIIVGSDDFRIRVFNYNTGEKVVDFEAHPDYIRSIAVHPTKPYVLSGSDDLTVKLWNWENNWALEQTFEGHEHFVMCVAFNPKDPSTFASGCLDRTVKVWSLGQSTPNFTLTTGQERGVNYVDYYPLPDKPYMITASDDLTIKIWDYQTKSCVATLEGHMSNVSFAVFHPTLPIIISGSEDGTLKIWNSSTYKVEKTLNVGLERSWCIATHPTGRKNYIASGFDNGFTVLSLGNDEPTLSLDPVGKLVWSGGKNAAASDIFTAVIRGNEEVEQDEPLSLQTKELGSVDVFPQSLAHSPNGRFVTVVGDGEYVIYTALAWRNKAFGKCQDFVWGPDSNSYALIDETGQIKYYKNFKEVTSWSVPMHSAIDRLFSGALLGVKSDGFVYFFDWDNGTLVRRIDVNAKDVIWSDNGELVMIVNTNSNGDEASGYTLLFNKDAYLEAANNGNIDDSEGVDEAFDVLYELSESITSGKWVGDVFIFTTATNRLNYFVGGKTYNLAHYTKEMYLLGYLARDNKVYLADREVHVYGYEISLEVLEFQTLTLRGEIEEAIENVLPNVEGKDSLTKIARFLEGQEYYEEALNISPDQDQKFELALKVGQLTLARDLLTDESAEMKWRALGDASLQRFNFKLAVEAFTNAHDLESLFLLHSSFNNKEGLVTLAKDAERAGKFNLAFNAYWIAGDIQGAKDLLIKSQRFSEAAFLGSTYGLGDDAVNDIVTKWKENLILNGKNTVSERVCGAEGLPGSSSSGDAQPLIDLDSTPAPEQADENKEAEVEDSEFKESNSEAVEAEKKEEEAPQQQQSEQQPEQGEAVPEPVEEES

Variants of: B1
Details: with copb2_yeast SEC27, P41811

Variant	effect of a mutation on the interaction
S1188F	decreasing interaction
